Experimental data reported in patent US20120329716A1 (UNIVERSITY OF MANITOBA, published 2012).

These binders were tested against T1, Purified human recombinant renin (human, UniProt P00797 67-406) (assay: cell-based or functional assay).
T1 sequence (looked up): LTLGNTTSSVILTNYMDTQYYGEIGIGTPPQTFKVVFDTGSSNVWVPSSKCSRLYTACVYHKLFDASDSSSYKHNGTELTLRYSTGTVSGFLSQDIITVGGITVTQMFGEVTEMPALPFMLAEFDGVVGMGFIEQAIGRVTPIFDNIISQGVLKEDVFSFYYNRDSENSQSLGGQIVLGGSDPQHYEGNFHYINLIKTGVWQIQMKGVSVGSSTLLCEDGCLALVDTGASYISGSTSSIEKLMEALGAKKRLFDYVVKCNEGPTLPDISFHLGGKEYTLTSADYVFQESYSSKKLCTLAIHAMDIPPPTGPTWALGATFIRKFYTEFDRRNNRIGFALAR

| Binder | RENIN INHIBITION % |
| --- | --- |
| YAGVSLI [SEQ ID NO. 21] | 36% |
| SNILEAA [SEQ ID NO. 20] | 24% |
| ADMFPF [SEQ ID NO. 23] | 76.2% |
| HPGAG [SEQ ID NO. 16] | 21.2% |
| RAAP [SEQ ID NO. 14] | 15.4% |
| WLP [SEQ ID NO. 13] | 4.85% |
| NFLAGPSD [SEQ ID NO. 25] | 6.73% |
| TNPFPF [SEQ ID NO. 24] | 28% |
| YKKSVSSESDPF [SEQ ID NO. 26] | 32.4% |
| AHPVAIN [SEQ ID NO. 22] | 43.5% |
| RSPD [SEQ ID NO. 17] | 57.5% |
| WMP [SEQ ID NO. 15] | 43.4% |
| YPRE [SEQ ID NO. 19] | 22.2% |
| WPHT [SEQ ID NO. 18] | 9.3% |

Biological target: T2, Renin substrate 1 (Arg-Glu(EDANS)-Ile-His-Pro-Phe-His-Leu-Val-Ile-His-Thr-Lys(dabcyl)-Arg)
T2 chain: REIHPFHLVIHTKR
Assay: not given

| Binder | Michaelis-Menten constant (Km) in the absence of peptide fractions | Michaelis-Menten constant (Km) in the presence of peptide fraction T4 | Michaelis-Menten constant (Km) in the presence of peptide fraction T5 |
| --- | --- | --- | --- |
| Purified human recombinant renin (protein) LTLGNTTSSVILTNYMDTQYYGEIGIGTPPQTFKVVFDTGSSNVWVPSSKCSRLYTACVYHKLFDASDSSSYKHNGTELTLRYSTGTVSGFLSQDIITVGGITVTQMFGEVTEMPALPFMLAEFDGVVGMGFIEQAIGRVTPIFDNIISQGVLKEDVFSFYYNRDSENSQSLGGQIVLGGSDPQHYEGNFHYINLIKTGVWQIQMKGVSVGSSTLLCEDGCLALVDTGASYISGSTSSIEKLMEALGAKKRLFDYVVKCNEGPTLPDISFHLGGKEYTLTSADYVFQESYSSKKLCTLAIHAMDIPPPTGPTWALGATFIRKFYTEFDRRNNRIGFALAR | 3.8 µM | increased to 6.3 and 6.1 µM, respectively | increased to 6.3 and 6.1 µM, respectively |
